Assay results published in patent US20230126796.
Read-outs that look alike come from different tables or passages of the source.

T1: PAR4-C synthetic peptide
T1 chain: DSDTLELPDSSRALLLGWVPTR

T2: PAR4-B synthetic peptide
T2 chain: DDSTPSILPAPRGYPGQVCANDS

B1: cathepsin G (protein)
chain: IIGGRESRPHSRPYMAYLQIQSPAGQSRCGGFLVREDFVLTAAHCWGSNINVTLGAHNIQRRENTQQHITARRAIRHPQYNQRTIQNDIMLLQLSRRVRRNRNVNPVALPRAQEGLRPGTLCTVAGWGRVSMRRGTDTLREVQLRVQRDRQCLRIFGSYDPRRQICVGDRRERKAAFKGDSGGPLLCNNVAHGIVSYGKSSGVPPEVFTRVSSFLPWIRTTMRS

What was measured:
PAR4-C synthetic peptide [1] = system: PAR4-C synthetic peptide
PAR4-B synthetic peptide [2] = system: PAR4-B synthetic peptide
PAR4-C synthetic peptide [3] = molecular target: T1, PAR4-C synthetic peptide
PAR4-B synthetic peptide [4] = molecular target: T2, PAR4-B synthetic peptide

Row | Molecule | proteolysis of the peptide, LC-MS/MS (PAR4-C synthetic peptide [1]) | proteolysis of the peptide, LC-MS/MS (PAR4-B synthetic peptide [2]) | proteolysis of the peptide, LC-MS/MS (PAR4-C synthetic peptide [3]) | proteolysis of the peptide, LC-MS/MS (PAR4-B synthetic peptide [4])
1 | alpha-thrombin | thrombin failed to cleave PAR4-C | PAR4-B was cleaved by thrombin between amino acids Arg47 and Gly48 | – | –
2 | B1 | – | – | CatG cleavage generated several fragments, including DSDTLELPSS | little cleavage was observed with CatG
